Assay results as given in doi:10.1101/2022.06.04.494841.
Several values for one entry are separate records, joined by “and”; a condition that tells them apart may be missing. Equal values may be shown once.

Biological target: MoFe-protein (molybdenum iron protein of the MoFe-nitrogenase) from Azotobacter vinelandii (Azotobacter vinelandii) (UniProt P07328)
Experiment: cryo-EM structure

Sequence of UniProt P07328 (P07328 whole entry, chain 1 of 2): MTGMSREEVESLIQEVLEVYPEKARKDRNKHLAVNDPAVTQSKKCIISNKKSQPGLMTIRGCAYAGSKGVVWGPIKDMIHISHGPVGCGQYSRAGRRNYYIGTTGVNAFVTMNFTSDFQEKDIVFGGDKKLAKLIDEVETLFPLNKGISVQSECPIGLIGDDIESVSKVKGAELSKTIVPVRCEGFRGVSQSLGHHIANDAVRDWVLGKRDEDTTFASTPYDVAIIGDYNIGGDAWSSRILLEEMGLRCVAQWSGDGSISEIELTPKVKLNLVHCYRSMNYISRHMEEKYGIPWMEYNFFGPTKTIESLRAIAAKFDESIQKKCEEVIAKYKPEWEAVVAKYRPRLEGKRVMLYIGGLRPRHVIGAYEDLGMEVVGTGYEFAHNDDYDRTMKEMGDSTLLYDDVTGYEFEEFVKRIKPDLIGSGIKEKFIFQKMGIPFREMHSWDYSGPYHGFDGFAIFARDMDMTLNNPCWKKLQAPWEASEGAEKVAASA
Sequence of UniProt P07328 (P07329 whole entry, chain 2 of 2, further chain): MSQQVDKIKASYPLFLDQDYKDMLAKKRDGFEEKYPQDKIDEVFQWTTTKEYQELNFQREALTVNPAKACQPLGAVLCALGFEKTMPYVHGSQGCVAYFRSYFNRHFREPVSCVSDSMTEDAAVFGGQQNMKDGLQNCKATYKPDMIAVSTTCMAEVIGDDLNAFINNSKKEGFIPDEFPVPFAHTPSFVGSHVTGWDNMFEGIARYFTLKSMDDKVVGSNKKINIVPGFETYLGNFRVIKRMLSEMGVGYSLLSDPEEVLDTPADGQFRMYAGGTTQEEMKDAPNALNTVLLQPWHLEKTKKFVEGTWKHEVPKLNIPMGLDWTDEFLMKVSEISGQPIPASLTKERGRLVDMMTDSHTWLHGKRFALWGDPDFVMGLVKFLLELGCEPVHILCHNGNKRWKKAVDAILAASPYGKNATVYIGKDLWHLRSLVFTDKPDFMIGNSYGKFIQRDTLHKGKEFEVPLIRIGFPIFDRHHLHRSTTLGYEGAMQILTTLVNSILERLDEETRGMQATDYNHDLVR

stoichiometry N (Fe-protein per MoFe-protein): 2 and 1
Substance: Fe-protein (iron protein of the MoFe-nitrogenase) from Azotobacter vinelandii (enzyme)
